Source: US20240092907A1 (Five Prime, published 2024)
Numbering of substitutions follows the chain as printed.

T1: recombinant hVISTA ECD multimer (monobiotinylated hVISTA ECD on PE-streptavidin dextramers) (human, UniProt Q9H7M9 33-194, limits assumed, monobiotinylated)
T1 construct: Loaded at a 28:1 molar ratio onto PE-conjugated streptavidin dextramers; also called VISTA multimer; hVISTA-loaded dextramers
T1 sequence (looked up): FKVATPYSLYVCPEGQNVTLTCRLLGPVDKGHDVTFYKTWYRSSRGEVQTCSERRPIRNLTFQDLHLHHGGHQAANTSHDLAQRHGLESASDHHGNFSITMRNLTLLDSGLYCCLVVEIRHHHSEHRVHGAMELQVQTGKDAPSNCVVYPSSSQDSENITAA

B1: P1-061029.IgG1.3 (antibody)
heavy: EVQLVESGGGLVQPGKSLRLSCAASGFTLDDYAMHWVRQAPGKGLEWVSGINWNSANIGYADSVKGRFTISRDNAKNSLYLQMNSLRTEDTALYYCAKVPGYSGGWIDAFDVWGQGTMVTVSSASTKGPSVFPLAPSSKSTSGGTAALGCLVKDYFPEPVTVSWNSGALTSGVHTFPAVLQSSGLYSLSSVVTVPSSSLGTQTYICNVNHKPSNTKVDKRVEPKSCDKTHTCPPCPAPEAEGAPSVFLFPPKPKDTLMISRTPEVTCVVVDVSHEDPEVKFNWYVDGVEVHNAKTKPREEQYNSTYRVVSVLTVLHQDWLNGKEYKCKVSNKALPAPIEKTISKAKGQPREPQVYTLPPSREEMTKNQVSLTCLVKGFYPSDIAVEWESNGQPENNYKTTPPVLDSDGSFFLYSKLTVDKSRWQQGNVFSCSVMHEALHNHYTQKSLSLSPG
light: not shown
notes: IgG1.3; also called parent; hIgG1.3f
B2: P1-068767.IgG1.3 (antibody, V domains shown)
VH: EVQLVESGGGLVQPGKSLRLSCAASGFTLEDYAMHWVRQAPGKGLEWVSGIDWNSENIGYADSVKGRFTISRDNAKNSLYLQMNSLRTEDTALYYCAKVPGYSGGWIDAEDDWGQGTMVTVSS
VL: not shown
notes: IgG1.3; also called hIgG1.3f; printed once as P1-068768
B3: P1-068761.IgG1.3 (antibody)
heavy: B1 heavy with D30E, Y32E, A56E, N57E, G104H, F110E
light: not shown
notes: IgG1.3; also called hIgG1.3f

Experiments:
[1] = molecular target: avidin (ThermoFisher Scientific catalog #21128) (UniProt P02701 25-152); experiment: SPR 25C, Ab on Protein A, pH 6.0 and 7.4
Procedure: (§1) Protein A (ThermoFisher Scientific catalog #21181) was diluted to 20 ug/ml in 10 mM sodium acetate pH 4.5 and immobilized onto flow cells of a CM3 biosensor following the manufacturer's amine coupling protocol (GE Healthcare), targeting 800 RU immobilization density of Protein A per flow cell. SPR experiments were conducted at 25° C. using PBST (137 mM sodium chloride, 2.7 mM potassium chloride, 10 mM phosphate buffer, 0.05% Tween 20) running buffer at pH 7.4 and 6.0. Antibodies (formatted as IgG1.3 antibodies) were diluted to 50 nM in PBST pH 7.4, and were captured across active biosensor flow cells at 5 ul/min for 60 seconds. […] Two 15 second injections of 10 mM glycine pH 1.5 were used to regenerate the Protein A capture surface between assay cycles. Reference flow cell and 0 nM blank-subtracted sensorgrams were inspected using Biacore® T200 Evaluation Software v.2.0.

[2] = molecular target: BSA (Calbiochem catalog #126593) (UniProt P02769 25-607); experiment: SPR 25C, Ab on Protein A, pH 6.0 and 7.4
Procedure: as §1

[3] = molecular target: T1, recombinant hVISTA ECD multimer …; experiment: flow cytometry, blocking of VISTA multimer binding to activated human CD4+ T cells, pH 6.0
Procedure: As a control, activated CD4+ T cells were stained with PE-conjugated streptavidin dextramers that were not loaded with hVISTA. The stained cells were washed with HBSS+ MES and acquired on a flow cytometer. Data were analyzed using FlowJo™ software (BD Biosciences). […] Left, from darker gray to lighter, the filled histograms depict binding at pH 7.0, 6.5, 6.4, 6.3, 6.1, and 6.0. Some histograms are labeled with their corresponding pH. Non-VISTA control multimer binding at pH 6.0 is shown as the unfilled histogram. Right, graphed PE mean fluorescence intensities (MFI) of CD4+ T cells stained with hVISTA-loaded dextramers (blue circles) or with non-loaded dextramers (triangles) at various pH.
This blocking assay was performed as described in Example 4.

Sequence of BSA (Calbiochem catalog #126593) (P02769 25-607 limits assumed): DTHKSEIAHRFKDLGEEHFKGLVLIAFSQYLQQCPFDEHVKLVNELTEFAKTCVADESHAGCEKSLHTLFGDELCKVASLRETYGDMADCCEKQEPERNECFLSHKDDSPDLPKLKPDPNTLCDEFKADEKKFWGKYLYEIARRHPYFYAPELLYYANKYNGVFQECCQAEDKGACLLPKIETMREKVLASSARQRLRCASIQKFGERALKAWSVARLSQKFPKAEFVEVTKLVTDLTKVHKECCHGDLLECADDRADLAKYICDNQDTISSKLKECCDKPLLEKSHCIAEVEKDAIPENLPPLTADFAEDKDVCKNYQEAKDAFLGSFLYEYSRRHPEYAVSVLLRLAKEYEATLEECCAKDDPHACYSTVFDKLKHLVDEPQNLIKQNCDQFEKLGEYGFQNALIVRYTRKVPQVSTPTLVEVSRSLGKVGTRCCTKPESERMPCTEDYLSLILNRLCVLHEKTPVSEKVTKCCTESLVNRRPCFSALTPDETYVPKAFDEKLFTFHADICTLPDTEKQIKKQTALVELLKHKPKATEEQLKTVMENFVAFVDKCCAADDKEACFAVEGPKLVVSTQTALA
Sequence of avidin (ThermoFisher Scientific catalog #21128) (P02701 25-152 limits assumed): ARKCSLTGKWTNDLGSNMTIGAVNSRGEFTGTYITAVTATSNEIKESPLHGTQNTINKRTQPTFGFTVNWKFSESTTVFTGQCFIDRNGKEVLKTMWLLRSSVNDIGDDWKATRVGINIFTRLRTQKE

| IC50 (read off the curve) [3] [ng/mL] | Binder | binding result [1] | binding result [2] |
| --- | --- | --- | --- |
| ~40 | B1 | no binding (tested: 100-10 nM; binding defined as >10 RU) | no binding (tested: 100-10 nM; binding defined as >10 RU) |
|  | B2 | no binding (tested: 100-10 nM; binding defined as >10 RU) | no binding (tested: 100-10 nM; binding defined as >10 RU) |
|  | B3 | no binding (tested: 100-10 nM; binding defined as >10 RU) | no binding (tested: 100-10 nM; binding defined as >10 RU) |
